Test results as given in patent US20180194830A1 (COMMISSARIAT A L ENERGIE ATOMIQUE ET AUX ENERGIES …, published 2018).

Biological target: T1, ILT4-Fc (recombinant ILT4 receptor fused to the Fc part of a human IgG, R&D Biosystems) (human, UniProt Q8N423 22-458)
T1 construct: Bought reagent (R&D); also called ILT4/LILRB2/CD85d; not shown: Fc part of a human IgG
Test: dimer covalently coated on Bio-Plex beads, ILT4-Fc at 2 µg/ml, PE anti-human IgG, flow cytometry
Procedure: To test the binding to HLA-G receptors ILT2, ILT4, and KIR2DL4, 12 μg of dimers obtained according to example 2 were covalently coated on Bio-Plex-COOH polystyrene beads (Bio-Rad) according to the manufacturer's recommendations. Beads were then resuspended at a concentration of 2000 beads per 50 μl in 1× Luminex assay buffer (Interchim). Recombinant receptors fused to the Fc part of a human IgG (ILT2-Fc, ILT4-Fc, R&D Biosystems) were then added at 2 μg/ml. Beads and receptors were then incubated for 90 minutes in the dark on a shaker before wash twice with 200 μl of 1×PBS, 0.05% Tween. Beads were then resuspended in 50 μl of PBS Luminex assay Buffer containing 2 μl g/ml of Phycoerythrin-conjugated Goat anti Human IgG antibody (Sigma) for 30 minutes in the dark on a rotating shaker. Beads were then washed twice with 200 μl of 1×PBS, 0.05% Tween, and resuspended in 300 μl of 1×PBS.
Fluorescence, indicative of peptide recognition by the receptors was evaluated by flow cytometry performed on an Epics XL Cytometer (Beckman Coulter) using EXPO32 software (Beckman Coulter).

T1 sequence (Q8N423 22-458 limits assumed): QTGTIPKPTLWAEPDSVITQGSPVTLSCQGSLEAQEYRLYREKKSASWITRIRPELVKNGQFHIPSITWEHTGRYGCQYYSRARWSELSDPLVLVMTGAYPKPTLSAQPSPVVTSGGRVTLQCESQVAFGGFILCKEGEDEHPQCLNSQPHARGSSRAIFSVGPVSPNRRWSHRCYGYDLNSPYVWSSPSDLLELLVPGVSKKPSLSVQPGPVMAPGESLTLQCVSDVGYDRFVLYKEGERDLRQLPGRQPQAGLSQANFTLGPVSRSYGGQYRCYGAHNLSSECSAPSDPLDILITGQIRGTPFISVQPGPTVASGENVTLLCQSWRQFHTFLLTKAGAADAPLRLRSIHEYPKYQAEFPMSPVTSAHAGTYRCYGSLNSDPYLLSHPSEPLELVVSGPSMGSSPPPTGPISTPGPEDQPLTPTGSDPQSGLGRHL

binding result: binds
B1: (alpha1-alpha 3)×2 dimer of SEQ ID NO:4 (peptide)
chain: GSHSMRYFSAAVSRPGRGEPRFIAMGYVDDTQFVRFDSDSACPRMEPRAPWVEQEGPEYWEEETRNTKAHAQTDRMNLQTLRGYYNQSEADPPKTHVTHHPVFDYEATLRCWALGFYPAEIILTWQRDGEDQTQDVELVETRPAGDGTFQKWAAVVVPSGEEQRYTCHVQHEGLPEPLMLRWKQ
modifications: intrachain disulfide between cysteines 111 and 167; interchain disulfide bridge between Cysteine 42 of the two monomers
notes: Synthetic disulfide-linked homodimer; in the assay covalently coated on Bio-Plex-COOH polystyrene beads; also called (alpha 3-alpha1)×2; (alpha1-alpha 3)x2
